According to US20120065379A1 (Chugai, published 2012):

Key:
[1] = target: T1, Soluble human FcRn (complex of FcRn and β2-microglobulin) (human, UniProt P55899 24-290; P61769 21-119); test: SPR (Biacore 3000), pH 6.0; antibody captured, human FcRn as analyte; steady state affinity
T1 construct: Co-expressed in HEK293H cells and purified from the culture supernatant; also called hFcRn
Experimental: (§1) Human FcRn was prepared according to the method described in Reference Example 2. The binding to human FcRn was assessed using Biacore 3000. An antibody was bound to Protein L or rabbit anti-human IgG Kappa chain antibody immobilized onto a sensor chip, human FcRn was added as an analyte for interaction with the antibody, and the affinity (KD) was calculated from the amount of bound human FcRn. Specifically, Protein L or rabbit anti-human IgG Kappa chain antibody was immobilized onto sensor chip CMS (BIACORE) by the amine coupling method using 50 mM Sodium-phosphate buffer (pH 6.0) containing 150 mM NaCl as the running buffer. Then, IL6R H0-IgG1/L0-k0 and IL6R H0-M82/L0-k0 was each diluted with a running buffer containing 0.02% Tween20, and injected to be bound to the chip. Human FcRn was then injected and the binding of the human FcRn to antibody was assessed.
(§2) The affinity was computed using BIAevaluation Software. The obtained sensorgram was used to calculate the amount of hFcRn bound to the antibody immediately before the end of human FcRn injection. The affinity of the antibody for human FcRn was calculated by fitting with the steady state affinity method.

[2] = target: T1, Soluble human FcRn (complex of FcRn and …); test: SPR (Biacore 3000), pH 6.0; antibody captured on Protein L or rabbit anti-human IgG Kappa chain antibody, human FcRn as analyte; steady state affinity fit
Experimental: as §1, §2

fold increase of binding compared to IL6R H0-IgG1/L0-k0 [1]: ~1.34 times
Kd [2]: 1210 nM
B1: IL6R H0-M82/L0-k0 (antibody, IgG2)
heavy: QVQLQESGPGLVRPSQTLSLTCTVSGYSITSDHAWSWVRQPPGRGLEWIGYISYSGITTYNPSLKSRVTMLRDTSKNQFSLRLSSVTAADTAVYYCARSLARTTAMDYWGQGSLVTVSSASTKGPSVFPLAPCSRSTSESTAALGCLVKDYFPEPVTVSWNSGALTSGVHTFPAVLQSSGLYSLSSVVTVPSSNFGTQTYTCNVDHKPSNTKVDKTVERKSSVECPPCPAPPVAGPSVFLFPPKPKDTLMISRTPEVTCVVVDVSQEDPEVQFNWYVDGVEVHNAKTKPREEQFNSTFRVVSVLTVVHQDWLNGKEYKCKVSNKGLPAPIEKTISKTKGQPREPQVYTLPPSQEEMTKNQVSLTCLVKGFYPSDIAVEWESNGQPENNYKTTPPMLDSDGSFFLYSKLTVDKSRWQEGNVFSCSVMHEALHNHYTQKSLSLSP
light: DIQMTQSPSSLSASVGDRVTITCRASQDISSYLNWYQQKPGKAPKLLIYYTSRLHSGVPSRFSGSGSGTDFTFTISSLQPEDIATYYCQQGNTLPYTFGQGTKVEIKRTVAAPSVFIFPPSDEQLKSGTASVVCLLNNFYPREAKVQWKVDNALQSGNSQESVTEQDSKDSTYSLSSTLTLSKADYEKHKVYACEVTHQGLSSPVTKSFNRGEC
notes: Same variable regions as m1; The M82 constant region is an IgG2 variant with C219S, C220S, H268Q, R355Q and Q419E (EU numbering) and with Gly446 and Lys447 deleted; also called M82-k0
